Source: article PMC11413788, “The heterobivalent (SSTR2/albumin) radioligand [^67Cu]Cu-NODAGA-cLAB4-TATE enables efficient somatostatin receptor radionuclide theranostics” (Theranostics, 2024)
Where two headings read alike, the source gives them in different places.

Experiments:
[1] = system: MPC cells; assay: Uptake of radioligands in intact MPC cells (acid wash); assay type: cell-based, mouse; conditions: 25 nmol/L; for Uptake fraction: non-acid-releasable fraction normalized to specifically bound radioligand
Experimental: Uptake of SSTR2 radioligands was measured and analyzed as previously described, with some modifications. In brief, radioligands were prepared at a molar activity of 25 MBq/nmol. […] Non-specific binding and uptake were measured in presence of 1 µmol/L acetyl-TATE. The uptake fraction of radioligands was measured after acid wash with Dulbecco's phosphate-buffered saline containing 0.9 mmol/L CaCl2, 0.5 mmol/L MgCl2, and 0.05 mol/L glycine, pH 2.8, for 5 min.

[2] = system: HEK293-SSTR2+ tumor xenografts; conditions: within seven days, cited from earlier work
[3] = system: MPC cells; assay type: cell-based, mouse; conditions: relative loss normalized to initial SSTR2-specific binding
Experimental: MPC cells (2.25 × 10^5/well) were seeded into collagen coated CELLSTAR 48‑well microplates (Greiner Bio‑One, 67180) and grown for three days. Cell culture medium and washing buffer were pre-warmed at 37 °C, unless specified otherwise. Radioligands were prepared at a molar activity of 40 MBq/nmol. Cells were incubated with the radioligands at a final concentration of 2.5 nmol/L in 0.5 mL of cell culture medium for 1 hour at 37 °C. Non-specific binding was determined in presence of 1 µmol/L acetyl-TATE. Binding to plastic surfaces was determined in cell-free cavities. At the end of radioligand exposure, incubation medium was removed, and cells were washed three times with Dulbecco's phosphate-buffered saline containing 0.9 mmol/L CaCl2 and 0.5 mmol/L MgCl2. Cells were overlayed with 0.5 mL of radioligand-free medium and further incubated at 37 °C for a total duration of 24 hours. At specific sampling points (1, 2, 5, and 24 hours), supernatants were removed from all cavities. […] Activity of cell homogenates was measured using the gamma counter Wizard^2 2480 (PerkinElmer, Waltham, MA, USA). Release kinetics were analyzed by non-linear regression using the 'two phase decay' model implemented in Prism 10 (GraphPad Software) with the 'Top' and 'Bottom' parameters constrained at 100 %, and 0 %, respectively.

[4] = cited from earlier work
[5] = Tissue pharmacokinetics by quantitative SPECT imaging in MPC allograft mice; conditions: mouse, in vivo; for tissue uptake per volume at 1 h / tissue uptake per volume at 5 h / tissue uptake per volume at 72 h / tissue uptake per volume at 168 h / Heart (blood) concentration half-life eff. / Liver concentration half-life eff. / Total body contents half-life eff.: female; for tissue uptake per volume at 1 h / tissue uptake per volume at 5 h / tissue uptake per volume at 72 h / tissue uptake per volume at 168 h: Rj:NMRI-Foxn1^nu/nu nude, iv, 50 MBq, total radioactivity; for Heart (blood) concentration half-life eff. / Liver concentration half-life eff. / Total body contents half-life eff.: nude (Rj:NMRI-Foxn1^nu/nu)
Experimental: All animal experiments were carried out according to the guidelines of the German Regulations for Animal Welfare and have been approved by the local Ethical Committee for Animal Experiments. MPC cells (4 × 10^6) were injected subcutaneously into the shoulder of 10-14‑week‑old female nude mice (Rj:NMRI-Foxn1^nu/nu, Janvier Labs, Le Genest-Saint-Isle, France). Prior to treatment and imaging procedures, anesthesia was induced and maintained with inhalation of 10 % (v/v) desflurane in 30/10 % (v/v) oxygen/air. During anesthesia, animals were continuously warmed at 37 °C. Body weight was monitored three times per week and tumor diameters were measured using a caliper. Tumor volume was calculated assuming a tri‑axial ellipsoid with the diameters a, b, and c using the formula V = π/6 × a × b × c. For urine collection, animals were separated in clear conventional rodent boxes. After spontaneous micturition, voided urine was aspirated with a pipette tip, diluted 1:2 with ultrapure water and stored at -80 °C until further processing. For blood sampling, animals were placed in a restrainer and 50 µL of blood were collected from a lateral tail vein using a syringe needle rinsed with heparin. Blood samples were mixed with 4 µL of a 10 % (w/v) aqueous potassium-EDTA solution and kept at 4 °C until further processing. Animals were sacrificed using CO2 inhalation and cervical dislocation.
Tumor-bearing mice were treated with the SSTR2 radioligands at a single initial activity dose of 50 MBq delivered in 0.2 mL of 0.154 mol/L NaCl(aq) through injection into a tail vein (see Supporting information, Table S 1 for further details). Small-animal single-photon emission computed tomography (SPECT) was performed using the Mediso NanoScan® SPECT/CT (Mediso Medical Imaging Systems, Budapest, Hungary). […] With each SPECT scan, a corresponding CT image was recorded and used for anatomical referencing and attenuation correction. Details on image acquisition and reconstruction parameters are included in the Supporting information.
Regions of interest (ROIs) were generated using tissue-specific signal intensity thresholds. ROI-averaged activity concentrations in tissues [MBq/mL] were determined. Details on SPECT image resolution, image quantification tests, and tissue delineation are included in the Supporting information.
(§1) Unless specified otherwise, all activity values are reported without decay correction. Time courses of normalized activity concentrations [% initial A/mL] (organs, tumors) or normalized activity amounts [% initial A] (total body, urinary bladder) were analyzed by non-linear regression using the 'One-phase decay', 'Plateau followed by one-phase decay', or 'Two-phase decay' models implemented in Prism 10 (GraphPad Software), with extrapolated y‑values approaching a lower limit constrained to 0. The normalized time-cumulated activity per milliliter of tissue [% initial A/mL × d] was calculated from areas under time-activity curves. For dose estimation in tumors and kidneys, these values were further converted into total time-cumulated organ activity per initial activity dose [MBq × h/MBq] using a realistic dosimetry model for 30‑g‑mice implemented in Olinda 2.2.3 (Hermes Medical Solutions AB, Stockholm, Sweden). The physical density of tissues was assumed to be 1 g/cm^3. The radionuclide-specific mean absorbed tissue dose DT [Gy] in tumors and kidneys was calculated using the sphere model in Olinda 2.2.3 (Hermes Medical Solutions AB).
Method: Extraction of tissue -specific activity concentrations from SPECT/CT images Tissue-specific regions of interest (ROIs) were generated in ROVER 3.0.77h (ABX). Sphere masks were positioned to pre -select tissue -specific regions for delineation. ROIs were generated within the masks using tissue -specific threshold -based delineation (% of maximum voxel intensity within the given mask)

[6] = Absorbed dose calculation in tumors and kidneys of MPC allograft mice; conditions: mouse, in vivo
Experimental: as §1

[7] = human
Experimental: Tissue-specific pharmacokinetic profiles of radioligands in mice were transformed into human time scale and organ masses using allometric scaling, and dose calculations were performed as reported elsewhere, with some modifications. In brief, projected cumulated activity in human organs was calculated by curve fitting as described above for investigations in mice. Calculations were performed separately for female and male subjects. Cumulated activity in the urinary bladder was determined assuming a voiding interval of four hours. Projected human doses were calculated for male and female subjects using the ICRP 89 Adult Female (60 kg) and ICRP 89 Adult Male (73 kg) models implemented in Olinda 2.2.3 (Hermes Medical Solutions AB).

[8] = system: NCI‑H69 xenografts; conditions: mouse, in vivo; cited from earlier work
[9] = system: GOT‑1 xenografts; conditions: mouse, in vivo; cited from earlier work
[10] = cited from earlier work; remark: listed apart in the source
[11] = mouse, in vivo; cited from earlier work

For C[C@@H](O)[C@H](NC(=O)[C@@H]1CSSC[C@H](NC(=O)[C@@H](Cc2ccccc2)NC(=O)CN2CCN(CC(=O)O)CCN(CC(=O)O)CCN(CC(=O)O)CC2)C(=O)N[C@@H](Cc2ccc(O)cc2)C(=O)N[C@H](Cc2c[nH]c3ccccc23)C(=O)N[C@@H](CCCCN)C(=O)N[C@@H]([C@@H](C)O)C(=O)N1)C(=O)O [[^64Cu]Cu‑DOTA-TATE, metal not drawn], the Uptake fraction ([1]; listed as DOTA ^64Cu) is given as 61 ± 4.6% and the “release from tumor xenografts” value ([2]; reported, reference not given) is given as 86%.
For C[C@@H](O)[C@H](NC(=O)[C@@H]1CSSC[C@H](NC(=O)[C@@H](Cc2ccccc2)NC(=O)CCC(C(=O)O)N2CCN(CC(=O)O)CCN(CC(=O)O)CC2)C(=O)N[C@@H](Cc2ccc(O)cc2)C(=O)N[C@H](Cc2c[nH]c3ccccc23)C(=O)N[C@@H](CCCCN)C(=O)N[C@@H]([C@@H](C)O)C(=O)N1)C(=O)O (stereo partly drawn) [[^64Cu]Cu‑NODAGA-TATE, metal not drawn], the “effective uptake lower compared to [177Lu]Lu-DOTA-TATE” value ([1]; MPC cells) was 77%, the Uptake fraction [1] was 64 ± 4.1% and the 24 h release [3] was 73 ± 1.9^ # %. The Fast fraction ([3]; 1 hour exposure) was 42 ± 3.3% and the plasma half-life [4] was greater than 1440 min.
For C[C@@H](O)[C@H](NC(=O)[C@@H]1CSSC[C@H](NC(=O)[C@@H](Cc2ccccc2)NC(=O)CCC(C(=O)O)N2CCN(CC(=O)O)CCN(CC(=O)O)CC2)C(=O)N[C@@H](Cc2ccc(O)cc2)C(=O)N[C@H](Cc2c[nH]c3ccccc23)C(=O)N[C@@H](CCCCN)C(=O)N[C@@H]([C@@H](C)O)C(=O)N1)C(=O)O (stereo partly drawn) [[^67Cu]Cu‑NODAGA-TATE, metal not drawn], the tissue uptake per volume at 1 h ([5]; Heart) was 0.35 ± 0.13 %ID/mL, the tissue uptake per volume at 1 h ([5]; Kidneys) was 6.69 ± 0.46 %ID/mL and the tissue uptake per volume at 5 h ([5]; Kidneys) was 3.87 ± 0.26 %ID/mL. The tissue uptake per volume at 1 h ([5]; Liver) was 0.63 ± 0.01 %ID/mL, the tissue uptake per volume at 5 h ([5]; Liver) was 0.57 ± 0.01 %ID/mL and the tissue uptake per volume at 72 h ([5]; Liver) was 0.15 ± 0.04 %ID/mL. For the same compound, the tissue uptake per volume at 168 h ([5]; Liver) was 0.03 ± 0.02 %ID/mL, the tissue uptake per volume at 1 h ([5]; Tumor) was 17.7 ± 1.83 %ID/mL and the tissue uptake per volume at 5 h ([5]; Tumor) was 13.5 ± 1.4 %ID/mL. The tissue uptake per volume at 72 h ([5]; Tumor) was 0.14 ± 0.01 %ID/mL, the “Heart (blood) concentration half-life eff.” value [5] was 7.8 min and the “Liver concentration half-life eff.” value [5] was 1210 ± 241 min. The “Total body contents half-life eff.” value [5] was 19.2 min, the “DT, Kidneys (mean absorbed dose in kidneys)” value [6] was 2.42 ± 0.20 Gy and the “estimated absorbed dose in kidneys” value [6] was 2.42-2.81 Gy/50 MBq. The “extrapolated female blood effective half-life” value [7] was 52.8 min.
C[C@@H](O)[C@H](NC(=O)[C@@H]1CSSC[C@H](NC(=O)[C@@H](Cc2ccccc2)NC(=O)CN2CCN(CC(=O)O)CCN(CC(=O)O)CCN(CC(=O)O)CC2)C(=O)N[C@@H](Cc2ccc(O)cc2)C(=O)N[C@H](Cc2c[nH]c3ccccc23)C(=O)N[C@@H](CCCCN)C(=O)N[C@@H]([C@@H](C)O)C(=O)N1)C(=O)O [[^68Ga]Ga‑DOTA-TATE, metal not drawn] gave an Uptake fraction ([1]; listed as DOTA ^68Ga) of 87 ± 1.9%.
In the case of C[C@@H](O)[C@H](NC(=O)[C@@H]1CSSC[C@H](NC(=O)[C@@H](Cc2ccccc2)NC(=O)CN2CCN(CC(=O)O)CCN(CC(=O)O)CCN(CC(=O)O)CC2)C(=O)N[C@@H](Cc2ccc(O)cc2)C(=O)N[C@H](Cc2c[nH]c3ccccc23)C(=O)N[C@@H](CCCCN)C(=O)N[C@@H]([C@@H](C)O)C(=O)N1)C(=O)O [[^177Lu]Lu‑DOTA-TATE, metal not drawn], the tissue uptake per volume at 1 h ([5]; Heart) is reported as 0.21 ± 0.18 %ID/mL, the tissue uptake per volume at 1 h ([5]; Kidneys) is reported as 4.05 ± 0.01 %ID/mL and the tissue uptake per volume at 5 h ([5]; Kidneys) is reported as 3.23 ± 0.04 %ID/mL. The tissue uptake per volume at 72 h ([5]; Kidneys) was 0.08 ± 0.01 %ID/mL, the tissue uptake per volume at 1 h ([5]; Liver) was 0.24 ± 0.04 %ID/mL and the tissue uptake per volume at 72 h ([5]; Tumor) was 6.79 ± 0.55 %ID/mL. For the same compound, the tissue uptake per volume at 168 h ([5]; Tumor) was 1.33 ± 0.11 %ID/mL, the tissue uptake per volume at 1 h ([5]; 1 h, decay-corrected, Am 40 MBq/nmol, read-out: Tumor) was 22.7 ± 1.84 %ID/mL and the “Heart (blood) concentration half-life eff.” value [5] was 7.8 min. For the same compound, the “Liver concentration half-life eff.” value [5] was 68.4 ± 1.2 min, the “Total body contents half-life eff.” value [5] was 15 min and the “release from MPC tumors” value [5] was 94%. For the same compound, the “DT, Kidneys (mean absorbed dose in kidneys)” value [6] was 2.81 ± 0.14 Gy, the “absorbed doses in MPC tumors” value [6] was 22.0-41.1 Gy and the “estimated absorbed dose in kidneys” value [6] was 2.42-2.81 Gy/50 MBq. For the same compound, the “highest absorbed dose in MPC tumors per administered activity” value [6] was 0.80-0.82 Gy/MBq, the “extrapolated female blood effective half-life” value [7] was 49.8 min and the “release from tumor xenografts” value [2] was 95%. The “absorbed tumor dose per administered activity” value [8] was 0.33-0.36 Gy/MBq, the “release from tumor xenografts” value [8] was 68−85% and the “total absorbed dose in tumors” value [8] was 10.0-10.2 Gy. The “absorbed tumor dose per administered activity” value [9] was 0.27 Gy, the “release from tumor xenografts” value [9] was 47% and the “total absorbed dose in tumors” value [9] was 8.1 Gy. The “total absorbed kidney doses well tolerated without acute nephrotoxicity” value ([10]; clinical experience) was “up to 23 Gy”, the “human effective dose in clinical dosimetry” value ([10]; human, in vivo) was 0.069 mSv/MBq and the “threshold dose for proximal tubular damage, absorbed in renal cortex” value [11] was 24 Gy.
